Laboratory results: the RNAGym collection of RNA variant scans (doi:10.1073/pnas.2313332121)

B1: TPR t1 (parent)
chain: GACCAAUCUGCCCUCAGAGCUCGAGAACAUCUUCGGAUGCAGAGGAGGCAGGCUUCGGUGGCGCGAUAGCGCCAACGUCCUCAACCUCCAAUGCAUCCCACCACAUGAUGAUGCCUGAAGAGCCUUGGUUUUUUG

Variants of: B1
Test: polymerase ribozyme fitness, log enrichment relative to wild type (log ratio); higher = more active; in vitro selection for triplet polymerase activity
Outline: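 Fitness is a logarithmic measure of how a genotype enriched relative to the wild type, with replicate averages weighted by inverse variance. The logarithm uses base 2, and enrichment came from Illumina sequencing of input and output libraries. Those libraries were PCR-built, transcribed mutants of each subunit of a heterodimeric triplet polymerase ribozyme, passed through one triplicate in vitro selection round that included frozen incubation at −7 °C, gel excision of extended constructs and streptavidin-bead capture. Genotypes were kept only if they had ≥10 input reads and ≥1 read per output.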

Variant	polymerase ribozyme fitness (log ratio)
C62U A100C U112C	-1.92
A68U U109A U129G	-7.47
C62U U133A	-0.403
A66C G113A	-1.78
G63A U96G U112A A118G	-1.58
G63A G113C	-2.53
C62U C70U U133A	0.14
G69A C88A C123G C124A G135U	-3.37
G63A U87A	-1.03
C62U G63C	-2.14
G63U A84C	-1.52
C64G U81A G120C	-6.58
U67C	-2.8
U67A	-5.73
U67G	-7.14
C62U G63U U78G U81G	-5.08
G69A G77A C86U U112A	-2.89
G69A	-2.44
G63C C114U	-2.19
G63C C114A	-2.44
G63U U92G G122A	-5.14
C62A U96G G113C C123G U133A	-3.2
C64U C104A G120A	-0.809
C64U C124G	1.78

Variant	polymerase ribozyme fitness (log ratio)
A68U A121U	-6.36
A68U A121G	-6.65
G63U G128U	-2.6
G63U G93A	-1.31
G63A A83C G127A G128C	-3.2
C64A C89A G117C G135U	-5.9
C62G C89U A111C U126C U129C	-4.44
G63C A121C	0.84
G63C A121G	0.727
G63A U132A	-0.756
G63C C123A G127A G135C	-0.151
G63A C102U U133G	-2.77
G63U C114A U125A	-4.22
A66U G128A	-3.15
C62U C85A	-2.09
A66C A74C A111C	-2.24
G69A C89U C123G	-2.85
G63U C79G	-3.17
C64U C82U U106G	-1.27
C64U C88U U106A U130A	-0.803
G63U C88U	-2.31
C64A G113C A118G	-6.38
G63A C82A	-2.53
C64U A83U	0.866

Variant	polymerase ribozyme fitness (log ratio)
C62U C114A	-1.35
C62G G113C	-4.48
C62U G113C G127C	-3.6
G69A C82U U112G	-4.1
G69A C101A U132A	-3.65
G63A U78G U112A	-2.03
G69A G77C C94U	-4.05
C64U U130C	-0.0426
C62U A91U G120A	-2.6
G63A C97A	-6.64
C64U C89G A91U C97U C115U	-2.63
G63C A121G U130A	0.94
C62U G71C U131G	-0.416
C64U U81A	-0.925
C62G G117C	-5.09
C62G G117U	-3.34
G63U A111U	-4.61
A66C U92A	-6.51
A66G G117C C124U U132A	-6.03
G63U A74U	-4.43
A66G C72U G107A C123A	-6.86
G63A C123G	0.797
A66U A75U G113A	-2.74
G63C C97A G120C U126A	-6.28

Variant	polymerase ribozyme fitness (log ratio)
G63U C82U G127C	-1.96
C62A U112A C123G	-1.31
C62U C64U C123A G128A	-1.1
A66G C101A C104A U112A C114U	-5.6
A68G C73G C82U	-5.21
C62A U96A	-1.77
C62G G110A U126G	-5.29
C64G C70A G93A C101A G120A G127A U131G	-6.32
C62G U132A	-0.911
C64U A74G U78A	-2.93
C62U C85A C101G	-3.99
G63C C89A U116C	-3.78
C62G A95G U132C	-1.55
G69A U81A C124A	-1.99
G69A G120U U130A	-2.09
A68G U129G	-4.32
A68G U129A	-4.01
A66U U81G U116G C124A	-5.38
A66C A105U A108G C124A	-7.55
C62G A90U	-3.82
C64U C97U	-1.3
G63U U78G U81A A118U U129C	-4.83
C64U C88U	-0.605
C64U C88A	-0.544

Variant	polymerase ribozyme fitness (log ratio)
C62A G135C	-0.579
C62A G135U	-1.52
C62G C80U	-2.03
U67C C82G A119G	-5.87
G63A A105G C124G	-2.8
G69A U81G A84C G93U C97G U112A	-6.86
C62U U81G A83U C89U G117U	-5.98
C62G U78A U106A	-1.75
G63C C115G	-2.43
G63A A103U	-6.64
G63U A105G	-3.13
C64U G117U	-1.28
C62U G93C	-1.8
C62G U78G C88G	-3.52
C62G C72U	-2.53
G63C C104U	-0.59
C64U A111C C115A G127A	-4.2
A66U G77A	-0.981
C62G U112A	-0.878
C62U U129A	-1.09
C64U C73U G117C	-3.17
C62U G110C C124U U125A	-5.16
C64U C123A	-0.0204
C62U C101G	-1.35

Variant	polymerase ribozyme fitness (log ratio)
C62U C101A	-0.746
G63U C73A A84U C86U A100G A111C	-6.77
C62U G117A	-1.28
C62U G117U	-2.6
C64U C101G	-1.69
A68G C97A	-7.14
G63A G93U G110A	-4.5
A68G C114A	-3.39
A66U G93A A121G	0.349
C62U U92A	-3.44
C62U U92G	-2.9
G63A U78C A84C U96G U116G	-4.46
A66G C86G	-1.77
C64U U109A	-4.01
G63U A108G	-3.13
G63U U92G G93C C98G A121G	-5.9
C62U C82A	-1.44
C64U C72U	-0.106
G63U C114A U133A	-3.35
C62U U87A A121U	2.07
G63C G93A	-1.12
A66U C70U C88G	-2.66
A66U U78C U87A A111U	-4.73
C62U A66U C73G C104U U112C	-1.37

Variant	polymerase ribozyme fitness (log ratio)
C62U U78C C82G A84C G93A C123U U129G	-1.05
C64U A95G G117C	-4.22
C62U A66G A100U	-2.66
G63C C86A A118G	-2.3
G69A A75G U96C	-3.29
G65C G69U C114G G117C C124U G128C	-5.15
C62G C86A	-3.17
A66G C124G	1.19
C62U U130G	-1.41
G63U U81G C97U U106A G120A U133C	-3.57
C64U C82U	-2.09
G63C G110U	-2.57
C62G A90U U112A C115G C124U U133C	-5.24
A68U U130C	-5.02
G63U C114A G122U	-3.44
G63C U112A	0.435
G63C U112G	-0.181
C62U G63U C101U G135A	-2.36
G63U G71C G113A	-6.74
G63A C79A G128C	-4.78
C62G G110C	-6.06
G63U C99U	-4.73
A66C U133A	-0.805
